{"source": "patent US20250353921A1", "about": "(ASTRIA THERAPEUTICS, published 2025)", "key": {"[1]": {"molecular_target": "T1, human OX40-ECD-his (human, UniProt P43489 29-214)", "T1 construct": "whole entry named", "T1 sequence": "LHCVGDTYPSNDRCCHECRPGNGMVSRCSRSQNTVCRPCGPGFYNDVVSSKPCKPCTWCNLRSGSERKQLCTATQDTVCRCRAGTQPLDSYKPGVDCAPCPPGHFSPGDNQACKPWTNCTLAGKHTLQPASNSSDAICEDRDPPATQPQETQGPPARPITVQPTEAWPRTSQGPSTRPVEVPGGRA", "assay": "ELISA, scFv supernatant on coated human OX40-ECD-his, anti-c-myc detection", "description": "The binding of scFv clones was assessed by ELISA. Individual E. coli colonies from the second round of selection were picked and grown in 2YT ampicillin medium (96-well deep well plates). ScFv expression was induced by addition of 1 mM of IPTG and incubation ON at 30° C. and 250 RPM. Cells were centrifuged and culture supernatant were used for screening. RIA/EIA plates were coated with either 200 ng/well of human OX40-ECD-his or cynomolgus OX40-ECD-Fc. In order to discriminate potential antibodies selected against the Fc fragment, a plate was also coated with an irrelevant Fc fused antigen. The plates were then blocked with PBS supplemented with 3% Bovine Serum Albumin (BSA). 80 μL of bacteria culture supernatants were then mixed with 20 μl of 3% BSA and added to the blocked plates for 1 hr at room temperature. Bound scFvs were detected using a biotinylated chicken anti-c-myc antibody diluted 1:5000 in PBS-0.3% BSA incubated for 1 hr at RT, followed by staining with the Pierce High Sensitivity Streptavidin-HRP reagent diluted 1:8000 in PBS-0.3% BSA for 30 min at RT. Plates were extensively washed using PBS supplemented with 0.05% Tween 20 between each incubation step. […] Clones that bound specifically to both human and cynomolgus OX40 but not to irrelevant antigen-Fc fusion protein were DNA sequenced."}, "[2]": {"molecular_target": "T2, Human CD16a (176F), Sino Biological 10389-H08H (human, UniProt P08637 17-208)", "T2 construct": "also called FcγRIIIa176F", "T2 sequence (P08637 17-208 limits assumed)": "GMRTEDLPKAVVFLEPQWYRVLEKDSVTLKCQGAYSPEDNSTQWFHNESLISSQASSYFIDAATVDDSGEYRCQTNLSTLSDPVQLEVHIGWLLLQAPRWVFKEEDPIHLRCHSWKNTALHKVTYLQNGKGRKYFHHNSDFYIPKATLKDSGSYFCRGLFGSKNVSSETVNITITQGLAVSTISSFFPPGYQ", "assay": "SPR Biacore 8K+, receptor captured by anti-His, antibody as analyte", "description": "(§1) Measurements were performed on a Biacore 8K+ instrument (Cytiva Life Sciences) using the Biacore 8K+ Control Software and analyzed with the Biacore Insight Evaluation Software (v3.0). […] After each binding event, baseline levels were restored using a regeneration solution on both flow-paths. HBS-EP+pH 7.4 solution were used as running buffer. Data was analyzed using the MCK evaluation method of the Biacore Insight Evaluation Software and kinetic parameters were determined using the 1:1 binding and steady-state affinity methods.\n(§2) Each measurement is the mean of three identical replicate conditions."}, "[3]": {"molecular_target": "T3, Human CD32b, Sino Biological 10259-H08H (human, UniProt P31994 43-217)", "T3 construct": "also called FcγRIIb", "T3 sequence (looked up)": "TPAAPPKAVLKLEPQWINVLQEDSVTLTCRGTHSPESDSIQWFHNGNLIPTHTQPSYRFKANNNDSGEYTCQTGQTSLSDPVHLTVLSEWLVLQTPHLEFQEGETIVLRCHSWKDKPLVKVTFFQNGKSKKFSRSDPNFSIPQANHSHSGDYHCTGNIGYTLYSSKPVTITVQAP", "assay": "SPR Biacore 8K+, receptor captured by anti-His, antibody as analyte", "description": "as §1, §2"}, "[4]": {"molecular_target": "T4, Human CD32a (167 Arg), Sino Biological 10374-H08H (human, UniProt P12318 34-218)", "T4 construct": "also called FcγRIIa167R", "T4 sequence (looked up)": "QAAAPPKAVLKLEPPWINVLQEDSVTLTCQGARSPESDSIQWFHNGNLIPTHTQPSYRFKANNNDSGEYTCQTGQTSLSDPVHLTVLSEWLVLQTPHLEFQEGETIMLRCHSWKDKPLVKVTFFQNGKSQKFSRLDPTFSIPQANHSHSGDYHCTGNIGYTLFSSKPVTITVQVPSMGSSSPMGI", "assay": "SPR Biacore 8K+, receptor captured by anti-His, antibody as analyte", "description": "as §1, §2"}, "[5]": {"molecular_target": "T5, Human CD16b (NA2 allotype), Sino Biological 11046-H08H (human, UniProt O75015 17-200)", "T5 construct": "also called FcγRIIIb", "T5 sequence (O75015 17-200 N65S limits assumed)": "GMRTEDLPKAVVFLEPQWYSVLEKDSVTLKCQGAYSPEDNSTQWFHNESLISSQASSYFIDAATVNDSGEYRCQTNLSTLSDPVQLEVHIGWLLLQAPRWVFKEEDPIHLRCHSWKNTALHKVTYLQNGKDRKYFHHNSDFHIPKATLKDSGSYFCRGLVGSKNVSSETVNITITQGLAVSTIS", "assay": "SPR Biacore 8K+, receptor captured by anti-His, antibody as analyte", "description": "as §1, §2"}, "[6]": {"molecular_target": "Human CD64 (FcγRI), Sino Biological 10256-H08H (human, UniProt P12314 16-288)", "sequence (P12314 16-288 limits assumed)": "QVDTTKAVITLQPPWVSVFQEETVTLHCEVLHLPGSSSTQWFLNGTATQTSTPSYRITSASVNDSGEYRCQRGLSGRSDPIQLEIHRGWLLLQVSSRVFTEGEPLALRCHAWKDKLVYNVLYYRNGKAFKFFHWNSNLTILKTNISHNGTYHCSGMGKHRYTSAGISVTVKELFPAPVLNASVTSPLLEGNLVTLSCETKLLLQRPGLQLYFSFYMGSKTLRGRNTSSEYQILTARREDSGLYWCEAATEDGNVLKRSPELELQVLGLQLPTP", "assay": "SPR Biacore 8K+, receptor captured by anti-His, antibody as analyte", "description": "as §1, §2"}, "[7]": {"molecular_target": "T6, Human CD16a (F176V), Sino Biological 10389-H08H1 (human, UniProt P08637 17-208)", "T6 construct": "also called FcγRIIIa176V", "T6 sequence (P08637 17-208 F176V limits assumed)": "as the sequence (P08637 17-208 limits assumed) above, with F160V counted along it", "assay": "SPR Biacore 8K+, receptor captured by anti-His, antibody as analyte", "description": "as §1, §2"}, "[8]": {"molecular_target": "T7, Human CD32a (167 His), Sino Biological 10374-H08H1 (human, UniProt P12318 34-218)", "T7 construct": "also called FcγRIIa167H", "T7 sequence (looked up)": "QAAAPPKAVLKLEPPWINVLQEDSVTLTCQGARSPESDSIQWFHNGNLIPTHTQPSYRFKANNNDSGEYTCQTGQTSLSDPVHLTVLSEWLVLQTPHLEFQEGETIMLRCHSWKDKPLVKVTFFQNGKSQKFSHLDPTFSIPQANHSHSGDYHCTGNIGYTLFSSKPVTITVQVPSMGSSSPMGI", "assay": "SPR Biacore 8K+, receptor captured by anti-His, antibody as analyte", "description": "as §1, §2"}, "[9]": {"molecular_target": "T8, human OX40 (TNFRSF4, CD134) on cells (human, UniProt P43489 29-277)", "T8 sequence": "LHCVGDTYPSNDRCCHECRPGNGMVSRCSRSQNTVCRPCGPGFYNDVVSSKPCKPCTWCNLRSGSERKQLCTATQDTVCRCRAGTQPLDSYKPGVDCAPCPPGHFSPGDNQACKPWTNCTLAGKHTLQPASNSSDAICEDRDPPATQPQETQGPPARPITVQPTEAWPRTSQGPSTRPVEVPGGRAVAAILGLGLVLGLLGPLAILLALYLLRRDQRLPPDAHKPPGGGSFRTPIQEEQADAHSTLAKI", "assay": "cell-based or functional assay"}, "[10]": {"molecular_target": "T8, human OX40 (TNFRSF4, CD134) on cells", "assay": "cell-based or functional assay", "remark": "listed apart in the source"}, "[11]": {"molecular_target": "T8, human OX40 (TNFRSF4, CD134) on cells", "assay": "flow cytometry on Jurkat-NFκB (OX40) cells, detection with anti-human IgG Fc-AF647"}}, "data": [{"binder": "MAB8 scFv clone (scFv) scFv: QVTLKESGPALVKPTQTLTLTCSFSGFSLSTSGMGVGWIRQPPGKALEWIAHIWWDDDKYYNTALKTRLTISKDTSKNQVVLTMTNMDPVDTATYYCARIDWDGFAYWGQGTLVTVSSGGGGSGGGGSGGGGSEIVLTQSPATLSLSPGERATLSCRASSSVSYMHWYQQKPGQAPRPWIYATSNRATGIPARFSGSGSGTDYTLTISSLEPEDFAVYYCQQTVAWPWTFGQGTKVEIK", "values": [{"measurement": "binding result", "setting": "[1]", "value": "binds"}]}, {"binder": "MAB5 scFv clone (scFv) scFv: QVTLKESGPALVKPTQTLTLTCSFSGFSLSTSGMGVGWIRQPPGKALEWIAHIWWDDDKYYNTALKTRLTISKDTSKNQVVLTMTNMDPVDTATYYCARIDWDGFAYWGQGTLVTVSSGGGGSGGGGSGGGGSEIVLTQSPATLSLSPGERATLSCRASSSVSYMHWYQQKPGQAPRPWIYATSNRATGIPARFSGSGSGTDYTLTISSLEPEDFAVYYCQQTLHYPWTFGQGTKVEIK", "values": [{"measurement": "binding result", "setting": "[1]", "value": "binds"}]}, {"binder": "MAB2 scFv clone (scFv) scFv: QVTLKESGPALVKPTQTLTLTCSFSGFSLSTSGMGVGWIRQPPGKALEWIAHIWWDDDKYYNTALKTRLTISKDTSKNQVVLTMTNMDPVDTATYYCARIDWDGFAYWGQGTLVTVSSGGGGSGGGGSGGGGSEIVLTQSPATLSLSPGERATLSCRASSSVSYMHWYQQKPGQAPRPWIYATSNRATGIPARFSGSGSGTDYTLTISSLEPEDFAVYYCQQFGDPPWTFGQGTKVEIK", "values": [{"measurement": "binding result", "setting": "[1]", "value": "binds"}]}, {"binder": "MAB7 scFv clone (scFv) scFv: QVTLKESGPALVKPTQTLTLTCSFSGFSLSTSGMGVGWIRQPPGKALEWIAHIWWDDDKYYNTALKTRLTISKDTSKNQVVLTMTNMDPVDTATYYCARIDWDGFAYWGQGTLVTVSSGGGGSGGGGSGGGGSEIVLTQSPATLSLSPGERATLSCRASSSVSYMHWYQQKPGQAPRPWIYATSNRATGIPARFSGSGSGTDYTLTISSLEPEDFAVYYCQQMEFTPWTFGQGTKVEIK", "values": [{"measurement": "binding result", "setting": "[1]", "value": "binds"}]}, {"binder": "MAB3 scFv clone (scFv) scFv: QVTLKESGPALVKPTQTLTLTCSFSGFSLSTSGMGVGWIRQPPGKALEWIAHIWWDDDKYYNTALKTRLTISKDTSKNQVVLTMTNMDPVDTATYYCARIDWDGFAYWGQGTLVTVSSGGGGSGGGGSGGGGSEIVLTQSPATLSLSPGERATLSCRASSSVSYMHWYQQKPGQAPRPWIYATSNRATGIPARFSGSGSGTDYTLTISSLEPEDFAVYYCQQTIEWPWTFGQGTKVEIK", "values": [{"measurement": "binding result", "setting": "[1]", "value": "binds"}]}, {"binder": "MAB9 scFv clone (scFv) scFv: QVTLKESGPALVKPTQTLTLTCSFSGFSLSTSGMGVGWIRQPPGKALEWIAHIWWDDDKYYNTALKTRLTISKDTSKNQVVLTMTNMDPVDTATYYCARIDWDGFAYWGQGTLVTVSSGGGGSGGGGSGGGGSEIVLTQSPATLSLSPGERATLSCRASSSVSYMHWYQQKPGQAPRPWIYATSNRATGIPARFSGSGSGTDYTLTISSLEPEDFAVYYCQAASSSSLEFGQGTKVEIK", "values": [{"measurement": "binding result", "setting": "[1]", "value": "binds"}]}, {"binder": "MAB1 scFv clone (scFv, Phage library scFv in bacterial culture supernatant) scFv: QVTLKESGPALVKPTQTLTLTCSFSGFSLSTSGMGVGWIRQPPGKALEWIAHIWWDDDKYYNTALKTRLTISKDTSKNQVVLTMTNMDPVDTATYYCARIDWDGFAYWGQGTLVTVSSGGGGSGGGGSGGGGSEIVLTQSPATLSLSPGERATLSCRASSSVSYMHWYQQKPGQAPRPWIYATSNRATGIPARFSGSGSGTDYTLTISSLEPEDFAVYYCQQFGAWPWTFGQGTKVEIK", "values": [{"measurement": "binding result", "setting": "[1]", "value": "binds"}]}, {"binder": "MAB6 scFv clone (scFv) scFv: QVTLKESGPALVKPTQTLTLTCSFSGFSLSTSGMGVGWIRQPPGKALEWIAHIWWDDDKYYNTALKTRLTISKDTSKNQVVLTMTNMDPVDTATYYCARIDWDGFAYWGQGTLVTVSSGGGGSGGGGSGGGGSEIVLTQSPATLSLSPGERATLSCRASSSVSYMHWYQQKPGQAPRPWIYATSNRATGIPARFSGSGSGTDYTLTISSLEPEDFAVYYCQQWETWPWTFGQGTKVEIK", "values": [{"measurement": "binding result", "setting": "[1]", "value": "binds"}]}, {"binder": "MAB4 scFv clone (scFv) scFv: QVTLKESGPALVKPTQTLTLTCSFSGFSLSTSGMGVGWIRQPPGKALEWIAHIWWDDDKYYNTALKTRLTISKDTSKNQVVLTMTNMDPVDTATYYCARIDWDGFAYWGQGTLVTVSSGGGGSGGGGSGGGGSEIVLTQSPATLSLSPGERATLSCRASSSVSYMHWYQQKPGQAPRPWIYATSNRATGIPARFSGSGSGTDYTLTISSLEPEDFAVYYCQQTLLFPWTFGQGTKVEIK", "values": [{"measurement": "binding result", "setting": "[1]", "value": "binds"}]}, {"binder": "MAB11 (antibody, human IgG1, kappa, IgG1 with M428L and N434S; also called MAB1 Heavy Chain + LS) heavy: not shown light: EIVLTQSPATLSLSPGERATLSCRASSSVSYMHWYQQKPGQAPRPWIYATSNRATGIPARFSGSGSGTDYTLTISSLEPEDFAVYYCQQFGAWPWTFGQGTKVEIKRTVAAPSVFIFPPSDEQLKSGTASVVCLLNNFYPREAKVQWKVDNALQSGNSQESVTEQDSKDSTYSLSSTLTLSKADYEKHKVYACEVTHQGLSSPVTKSFNRGEC", "values": [{"measurement": "Kd", "setting": "[2]", "value": 246, "unit": "nM"}, {"measurement": "Kd", "setting": "[3]", "value": 9880, "unit": "nM"}, {"measurement": "Kd", "setting": "[4]", "value": 5430, "unit": "nM"}, {"measurement": "Kd", "setting": "[5]", "value": 2740, "unit": "nM"}, {"measurement": "Kd", "setting": "[6]", "value": 6.3, "unit": "nM"}, {"measurement": "Kd", "setting": "[7]", "value": 221, "unit": "nM"}, {"measurement": "Kd", "setting": "[8]", "value": 3380, "unit": "nM"}]}, {"binder": "OX40L (recombinant human OX40 ligand) (ligand, UniProt P23510 51-183, looked up) QVSHRYPRIQSIKVQFTEYKKEKGFILTSQKEDEIMKVQNNSVIINCDGFYLISLKGYFSQEVNISLHYQKDEEPLFQLKKVRSVNSLMVASLTYKDKVYLNVTTDNTSLDDFHVNGGELILIHQNPGEFCVL", "values": [{"measurement": "average proliferation index (Av), coated T cell agonism assay", "setting": "[9]", "value": 5.61}, {"measurement": "luminescence, Jurkat-NFκB-OX40 agonism assay", "setting": "[10]", "value": 8, "unit": "fold"}]}, {"binder": "OX40L (P865) (Fc fusion, human, UniProt P23510 51-183, looked up, the sheet prints OX40L (P865) in the legend box and OX40L (P685) beside the curve; also called OX40L-Fc; OX40L (P685)) OX40L-Fc chain: QVSHRYPRIQSIKVQFTEYKKEKGFILTSQKEDEIMKVQNNSVIINCDGFYLISLKGYFSQEVNISLHYQKDEEPLFQLKKVRSVNSLMVASLTYKDKVYLNVTTDNTSLDDFHVNGGELILIHQNPGEFCVL", "values": [{"measurement": "EC50 (read off the curve)", "setting": "[11]", "value": "~0.2", "unit": "µg/mL"}]}]}
